Assay results from paper PMC7413375, “A study on the response of FRET based DNA aptasensors in intracellular environment”.

Target: TNF-alpha (UniProt P01375 77-233)
Assay: FRET quenching (QD photoluminescence decreases with TNF-alpha); DSS peptide-conjugated QD/Au molecular beacon, TNF-alpha in PBS; TNF-alpha samples in PBS; other assay conditions (temperature, concentrations) not in the material; beacon washed in 50 mM borate pH 8.3
Details: chain copies: 3

Sequence of TNF-alpha (P01375 77-233): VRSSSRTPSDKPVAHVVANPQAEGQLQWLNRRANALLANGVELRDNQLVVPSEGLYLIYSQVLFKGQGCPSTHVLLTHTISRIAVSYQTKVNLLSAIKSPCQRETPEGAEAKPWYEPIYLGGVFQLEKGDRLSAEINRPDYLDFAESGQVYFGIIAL

TGGTGGATGGCGCAGTCGGCGACAA (ssDNA, 5' Amino C6; 3' Thiol C6 SS) [TNF-alpha binding DNA aptamer (25 nt) in DSS-molecular beacon]: binds.
